Test results taken from the supplement of paper PMC10126150.
± gives the standard deviation of the averaged measurements.

Test system: ATP
Test: switch fluorescence ratio, 500 uM ATP over buffer (Cy3 cluster intensity, sum of 5 cycles each) (fold (ratio)); higher = stronger signal-on switching upon ATP binding; sequences stand for … in TCGTCGGCAGCGTCAGATGTGTATAAGAGACAGTTTTTTTTTTTTTTTTTTTTTTTTT…TC
Details: aptamer strand: ATP DNA aptamer (quencher-CACCTGGGGGAGTATTGCGGAGGAAGG + anchor), 100 nM annealed; ATP concentration: 500 uM
Procedure, shortened: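 Imaging in selection buffer was followed by imaging after 15 min with 500 uM ATP at 22 °C, for Cy3-labelled switching-strand clusters annealed to 100 nM quencher-labelled ATP aptamer on a modified Illumina MiSeq flow-cell. Five of these buffer/ATP cycles ran, separated by NaOH stripping and re-annealing. The fluorescence ratio per cluster is summed target-cycle over summed buffer-cycle Cy3 intensity, averaged per switch-domain sequence; clusters outside 100-1000 RFU were removed.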
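Also: ATP exposure 15 min at 22 °C before imaging.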

## GGTTCTTAGG
  switch fluorescence ratio: 1.01 ± 0.032

## GGTTCTTAGT
  switch fluorescence ratio: 0.978 ± 0.05

## GGTTCTTATT
  switch fluorescence ratio: 1.017 ± 0.0064

## GGTTGAAGTA
  switch fluorescence ratio: 0.989 ± 0.047

## GGTTGAATTG
  switch fluorescence ratio: 0.974 ± 0.01

## GGTTGAGTG
  switch fluorescence ratio: 0.977 ± 0.0033

## GGTTGATTGG
  switch fluorescence ratio: 0.973 ± 0.014

## GGTTGCAAGC
  switch fluorescence ratio: 1.05 ± 0.017

## GGTTGCCTGC
  switch fluorescence ratio: 0.96 ± 0.029

## GGTTGCTCGG
  switch fluorescence ratio: 0.998 ± 0.026

## GGTTGCTGCC
  switch fluorescence ratio: 0.9917 ± 0.0029

## GGTTGGAATA
  switch fluorescence ratio: 0.965 ± 0.044

## GGTTGGAATG
  switch fluorescence ratio: 1.08 ± 0.18

## GGTTGGAGGT
  switch fluorescence ratio: 0.971 ± 0.019

## GGTTGGGCGA
  switch fluorescence ratio: 0.986 ± 0.021

## GGTTGGGGGC
  switch fluorescence ratio: 0.991 ± 0.025

## GGTTGGGGTT
  switch fluorescence ratio: 0.942 ± 0.039

## GGTTGGGTG
  switch fluorescence ratio: 1.03 ± 0.013

## GGTTGGGTTT
  switch fluorescence ratio: 0.989 ± 0.03

## GGTTGGTACT
  switch fluorescence ratio: 1 ± 0.026

## GGTTGGTATG
  switch fluorescence ratio: 0.987 ± 0.027

## GGTTGGTCTT
  switch fluorescence ratio: 0.974 ± 0.041

## GGTTGTACGA
  switch fluorescence ratio: 0.986 ± 0.01

## GGTTGTACGT
  switch fluorescence ratio: 0.984 ± 0.01

## GGTTGTGATA
  switch fluorescence ratio: 0.999 ± 0.044

## GGTTGTGGGA
  switch fluorescence ratio: 0.98 ± 0.053

## GGTTGTGGTT
  switch fluorescence ratio: 0.998 ± 0.031

## GGTTGTGTTA
  switch fluorescence ratio: 0.998 ± 0.013

## GGTTGTTCGT
  switch fluorescence ratio: 1.006 ± 0.0037

## GGTTGTTGAG
  switch fluorescence ratio: 0.987 ± 0.052

## GGTTGTTTGG
  switch fluorescence ratio: 0.989 ± 0.02

## GGTTGTTTGT
  switch fluorescence ratio: 0.995 ± 0.015

## GGTTTAAAGT
  switch fluorescence ratio: 1.01 ± 0.014

## GGTTTAAGCA
  switch fluorescence ratio: 0.982 ± 0.034

## GGTTTACGGT
  switch fluorescence ratio: 1.007 ± 0.0018

## GGTTTAGATA
  switch fluorescence ratio: 0.987 ± 0.031

## GGTTTAGCGG
  switch fluorescence ratio: 0.9809 ± 0.0033

## GGTTTAGGCC
  switch fluorescence ratio: 0.991 ± 0.03

## GGTTTATGGA
  switch fluorescence ratio: 1.03 ± 0.024

## GGTTTATGGT
  switch fluorescence ratio: 0.967 ± 0.019

## GGTTTCAGGG
  switch fluorescence ratio: 0.986 ± 0.013

## GGTTTCCAAT
  switch fluorescence ratio: 1 ± 0.02

## GGTTTCCGGC
  switch fluorescence ratio: 1.008 ± 0.0087

## GGTTTCCGT
  switch fluorescence ratio: 0.987 ± 0.038

## GGTTTCGATG
  switch fluorescence ratio: 1 ± 0.023

## GGTTTCGCCG
  switch fluorescence ratio: 0.985 ± 0.052

## GGTTTCGGTT
  switch fluorescence ratio: 1.5 ± 0.86

## GGTTTCTAGA
  switch fluorescence ratio: 0.984 ± 0.024

## GGTTTCTGGG
  switch fluorescence ratio: 0.963 ± 0.017

## GGTTTGAAGC
  switch fluorescence ratio: 0.9642 ± 0.008

## GGTTTGAGGG
  switch fluorescence ratio: 0.985 ± 0.028

## GGTTTGATAT
  switch fluorescence ratio: 0.972 ± 0.013

## GGTTTGCAAG
  switch fluorescence ratio: 0.986 ± 0.018

## GGTTTGCTGT
  switch fluorescence ratio: 0.99034 ± 0.00027

## GGTTTGTTGT
  switch fluorescence ratio: 0.972 ± 0.022

## GGTTTTAACA
  switch fluorescence ratio: 1 ± 0.051

## GGTTTTACTC
  switch fluorescence ratio: 1.0379 ± 0.0006

## GGTTTTAGGA
  switch fluorescence ratio: 0.987 ± 0.025

## GGTTTTGCAC
  switch fluorescence ratio: 1.03 ± 0.038

## GGTTTTGGCT
  switch fluorescence ratio: 0.991 ± 0.01

## GGTTTTGGGT
  switch fluorescence ratio: 0.978 ± 0.026

## GGTTTTGGTT
  switch fluorescence ratio: 0.986 ± 0.025

## GGTTTTGTCA
  switch fluorescence ratio: 1.01 ± 0.019

## GGTTTTTATG
  switch fluorescence ratio: 1.004 ± 0.009

## GGTTTTTGGC
  switch fluorescence ratio: 1.02 ± 0.048

## GGTTTTTTAA
  switch fluorescence ratio: 0.995 ± 0.011

## GGTTTTTTTT
  switch fluorescence ratio: 0.992 ± 0.03

## GTAAACGGGT
  switch fluorescence ratio: 0.963 ± 0.016

## GTAACAGGCG
  switch fluorescence ratio: 0.905 ± 0.021

## GTAACCAAGA
  switch fluorescence ratio: 1.02 ± 0.0035

## GTAACTAATG
  switch fluorescence ratio: 1.02 ± 0.02

## GTAACTCGAA
  switch fluorescence ratio: 0.98231 ± 0.00092

## GTAAGAAAGA
  switch fluorescence ratio: 1.02 ± 0.015

## GTAAGAGGAA
  switch fluorescence ratio: 1.01 ± 0.044

## GTAAGGAAAT
  switch fluorescence ratio: 1.013 ± 0.0024

## GTAAGGGGCG
  switch fluorescence ratio: 1.02 ± 0.035

## GTAAGTCCGA
  switch fluorescence ratio: 0.98 ± 0.0033

## GTAATAACGG
  switch fluorescence ratio: 1.034 ± 0.0033

## GTAATAAGGG
  switch fluorescence ratio: 1.04 ± 0.041

## GTAATAGGGT
  switch fluorescence ratio: 1.01 ± 0.033

## GTAATGATTG
  switch fluorescence ratio: 0.989 ± 0.014

## GTAATGCTCA
  switch fluorescence ratio: 1.36 ± 0.062

## GTAATGGGGA
  switch fluorescence ratio: 1.02 ± 0.015

## GTAATTGGGA
  switch fluorescence ratio: 1.022 ± 0.0011

## GTAATTGTTA
  switch fluorescence ratio: 1 ± 0.015

## GTAATTTTGC
  switch fluorescence ratio: 0.989 ± 0.059

## GTACAGGTTT
  switch fluorescence ratio: 1.018 ± 0.0074

## GTACCCCAGG
  switch fluorescence ratio: 3.5 ± 3.3

## GTACCTTGAT
  switch fluorescence ratio: 1.05 ± 0.015

## GTACTATCTC
  switch fluorescence ratio: 0.998 ± 0.046

## GTACTCATTT
  switch fluorescence ratio: 1 ± 0.038

## GTACTCGAGC
  switch fluorescence ratio: 1 ± 0.018

## GTAGAGGGGG
  switch fluorescence ratio: 0.989 ± 0.014

## GTAGCAGGGG
  switch fluorescence ratio: 1.3 ± 0.068

## GTAGCATGCC
  switch fluorescence ratio: 1.32 ± 0.088

## GTAGCGAGAG
  switch fluorescence ratio: 2.11 ± 0.24

## GTAGGACGGG
  switch fluorescence ratio: 0.995 ± 0.012

## GTAGGCCATG
  switch fluorescence ratio: 1 ± 0.022

## GTAGGCGGTG
  switch fluorescence ratio: 0.984 ± 0.029

## GTAGGGATGG
  switch fluorescence ratio: 1.03 ± 0.013

## GTAGGGGAAG
  switch fluorescence ratio: 1.01 ± 0.017

## GTAGGGGGTC
  switch fluorescence ratio: 1.01 ± 0.027

## GTAGGTTACT
  switch fluorescence ratio: 1.01 ± 0.019

## GTAGGTTATG
  switch fluorescence ratio: 1.007 ± 0.0081

## GTAGTAAGCG
  switch fluorescence ratio: 0.953 ± 0.045

## GTAGTAGATG
  switch fluorescence ratio: 1.013 ± 0.0097

## GTAGTAGCGT
  switch fluorescence ratio: 0.969 ± 0.022

## GTAGTGGCAG
  switch fluorescence ratio: 0.992 ± 0.049

## GTAGTTGATG
  switch fluorescence ratio: 0.9665 ± 0.0026

## GTAGTTTATG
  switch fluorescence ratio: 0.996 ± 0.014

## GTAGTTTGAG
  switch fluorescence ratio: 0.996 ± 0.015

## GTAGTTTTTT
  switch fluorescence ratio: 1.04 ± 0.032

## GTATAAAGGC
  switch fluorescence ratio: 1.01 ± 0.047

## GTATAACCCG
  switch fluorescence ratio: 0.992 ± 0.026

## GTATAAGGTT
  switch fluorescence ratio: 0.98006 ± 0.00074

## GTATAATGGG
  switch fluorescence ratio: 0.973 ± 0.019

## GTATGAAATC
  switch fluorescence ratio: 1.02 ± 0.036

## GTATGAAGAG
  switch fluorescence ratio: 0.995 ± 0.023

## GTATGAGTAG
  switch fluorescence ratio: 0.992 ± 0.035

## GTATGCGTGC
  switch fluorescence ratio: 1.04 ± 0.017

## GTATGCGTTG
  switch fluorescence ratio: 0.989 ± 0.056

## GTATGGAGCG
  switch fluorescence ratio: 0.981 ± 0.019

## GTATGGCTAG
  switch fluorescence ratio: 0.978 ± 0.029

## GTATGGGAAA
  switch fluorescence ratio: 1.04 ± 0.054

## GTATGGGGCA
  switch fluorescence ratio: 1 ± 0.029

## GTATGGGGCG
  switch fluorescence ratio: 1.01 ± 0.081

## GTATGGGGGC
  switch fluorescence ratio: 0.974 ± 0.063

## GTATGGGGGT
  switch fluorescence ratio: 0.963 ± 0.024

## GTATGGGTGT
  switch fluorescence ratio: 0.9711 ± 0.0078

## GTATGGTGGG
  switch fluorescence ratio: 1.02 ± 0.04

## GTATGTAAT
  switch fluorescence ratio: 0.997 ± 0.011

## GTATGTCGGT
  switch fluorescence ratio: 0.997 ± 0.051

## GTATTAATTT
  switch fluorescence ratio: 0.9833 ± 0.0046

## GTATTAGGCG
  switch fluorescence ratio: 1.02 ± 0.02

## GTATTATTTT
  switch fluorescence ratio: 0.979 ± 0.024

## GTATTGGTTG
  switch fluorescence ratio: 0.983 ± 0.026

## GTATTTACAT
  switch fluorescence ratio: 0.9862 ± 0.0048

## GTCAATGGGA
  switch fluorescence ratio: 1 ± 0.029

## GTCAATGGTG
  switch fluorescence ratio: 0.9901 ± 0.0074

## GTCAATTGAT
  switch fluorescence ratio: 0.9924 ± 0.0074

## GTCAATTTGT
  switch fluorescence ratio: 1.02 ± 0.018

## GTCACAACGG
  switch fluorescence ratio: 0.999 ± 0.024

## GTCACACTAT
  switch fluorescence ratio: 1.02 ± 0.034

## GTCACAGGCT
  switch fluorescence ratio: 1.02 ± 0.026

## GTCACAGTTG
  switch fluorescence ratio: 1.015 ± 0.0045

## GTCAGAAATG
  switch fluorescence ratio: 0.982 ± 0.013

## GTCAGGAAGT
  switch fluorescence ratio: 1.02 ± 0.016

## GTCAGGGTTG
  switch fluorescence ratio: 1 ± 0.048

## GTCAGTAGGC
  switch fluorescence ratio: 0.991 ± 0.017

## GTCATAGATT
  switch fluorescence ratio: 0.989 ± 0.011

## GTCATAGCGT
  switch fluorescence ratio: 0.977 ± 0.016

## GTCATAGGGG
  switch fluorescence ratio: 1.01 ± 0.026

## GTCATAGTTC
  switch fluorescence ratio: 0.966 ± 0.015

## GTCATCAGGT
  switch fluorescence ratio: 1.008 ± 0.0058

## GTCATGGTAG
  switch fluorescence ratio: 1.02 ± 0.031

## GTCATTGATT
  switch fluorescence ratio: 1.01 ± 0.011

## GTCCAAAAAC
  switch fluorescence ratio: 1.15 ± 0.038
